Values joined by “and” are separate entries in the source; they are usually repeats but may differ in a detail not shown here. Identical values can stand only once. Bridges are numbered along the chain shown (N, C = ends). Where no end group is shown, it is not given here. [ ]: non-standard residue; d: D form. The star is where a group is joined. Palmitoyl = CCCCCCCCCCCCCCCC(=O)*; Chg = N[C@H](C(=O)O)C1CCCCC1; NMeA = CN[C@@H](C)C(=O)O

The target in assay [1] is T1, β-catenin (UniProt P35222 134-665, limits assumed, biotinylated in the SPR and plate assays).
T1 sequence (looked up): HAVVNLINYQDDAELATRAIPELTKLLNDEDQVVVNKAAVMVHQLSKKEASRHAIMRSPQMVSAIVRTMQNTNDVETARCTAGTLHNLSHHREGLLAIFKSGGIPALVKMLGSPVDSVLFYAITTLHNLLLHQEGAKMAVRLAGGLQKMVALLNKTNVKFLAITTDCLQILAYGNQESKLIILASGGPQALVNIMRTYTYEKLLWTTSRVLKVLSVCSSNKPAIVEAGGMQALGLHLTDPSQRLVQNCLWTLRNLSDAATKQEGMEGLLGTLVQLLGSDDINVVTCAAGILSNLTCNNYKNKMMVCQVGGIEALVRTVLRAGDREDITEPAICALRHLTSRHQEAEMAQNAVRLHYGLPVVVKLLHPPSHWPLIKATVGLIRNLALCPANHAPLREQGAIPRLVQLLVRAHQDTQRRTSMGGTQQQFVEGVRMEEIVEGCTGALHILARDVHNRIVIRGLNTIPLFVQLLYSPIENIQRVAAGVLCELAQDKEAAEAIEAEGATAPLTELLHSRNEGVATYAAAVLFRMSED
As to the kind of experiment: cell-based or functional assay.

The target in assay [2] is T1, β-catenin. As to the kind of experiment: competitive FP. An excerpt:
Fluorescence polarization (FP) is another method used to analyze protein-ligand interactions. This methodology measures the change in fluorescence light emitted by a labelled compound free vs. conjugated to another compound in solution. Upon binding of the fluorescent molecule to a complex, polarization increases because of limited rotation of the fluorescent tracer. Competitive FP is often utilized in drug screens as it is formatted for high throughput screens in a plate format. This immunoassay is performed by introducing a non-conjugated drug to compete for binding to the labelled competitor-ligand complex, leading to a reduction in polarization. […] Exemplary methodology is described in Example 13. Data were analyzed and plotted in Microsoft Excel (Microsoft, Redmond, WA).
Varying concentrations of β-catenin inhibitor candidate (SEQ ID NO: 404) were then added in a series of serial dilutions from 10 nM to 30 uM of inhibitor in different wells of the plate. The fluorescence polarization was read by Infinite M1000 (Tecan, Baldwin Park CA) at excitation wavelength of 470 nm and measured at emission wavelength of 520 nm. […] The experiments were performed three times and data were analyzed and plotted in Microsoft Excel (Microsoft, Redmond, WA).

For the molecule Palmitoyl-PQKILDEH[Chg]QRVMK-NH2 (bridge 3-7; also: K3* and E7* marked (linkage not given here)) [SEQ ID NO: 490], the “Wnt Reporter EC50” value in assay [1] was not above 7500 nM.

B1: SEQ ID NO: 240 (peptide)
peptide: MWILISFW
HELM: PEPTIDE1{[ac].M.W.I.L.I.S.F.W.[O=C(O)CCCN[*:1]]}$$$$V2.0
SMILES: CC[C@H](C)[C@H](NC(=O)[C@H](CC(C)C)NC(=O)[C@@H](NC(=O)[C@H](Cc1c[nH]c2ccccc12)NC(=O)[C@H](CCSC)NC(C)=O)[C@@H](C)CC)C(=O)N[C@@H](CO)C(=O)N[C@@H](Cc1ccccc1)C(=O)N[C@@H](Cc1c[nH]c2ccccc12)C(=O)NCCCC(=O)O
Usually Kd stands for the free concentration of one partner at which half of the binding sites on the other are occupied at equilibrium, for simple one-to-one binding. Regarding B1, the Kd in assay [2] was not above 400 nM.

B2: SEQ ID NO: 470 (peptide)
peptide: Ac-W[NMeA]QSILDEH[Chg]QKVWG-NH2
modifications: lactam 8-12; not fully specified; printed as Ac-NH-W-NMeA-QSILDE*H-Chg-QK*VWG-NH2
As to B2, the Kd in assay [2] was not above 400 nM.

B3: SEQ ID NO: 437 (peptide)
peptide: WAQSILDEHVQKVWG
HELM: PEPTIDE1{[ac].W.[meA].Q.S.I.L.D.E.H.V.Q.K.V.W.G.[am]}$PEPTIDE1,PEPTIDE1,9:R3-13:R3$$$V2.0
SMILES: CC[C@H](C)[C@H](NC(=O)[C@H](CO)NC(=O)[C@H](CCC(N)=O)NC(=O)[C@H](C)N(C)C(=O)[C@H](Cc1c[nH]c2ccccc12)NC(C)=O)C(=O)N[C@@H](CC(C)C)C(=O)N[C@@H](CC(=O)O)C(=O)N[C@H]1CCC(=O)NCCCC[C@@H](C(=O)N[C@H](C(=O)N[C@@H](Cc2c[nH]c3ccccc23)C(=O)NCC(N)=O)C(C)C)NC(=O)[C@H](CCC(N)=O)NC(=O)[C@H](C(C)C)NC(=O)[C@H](Cc2c[nH]cn2)NC1=O
For the molecule B3, the Kd in assay [2] was not above 400 nM. Same read-out and setting: the figure for H-MWFLISFWA-OH [SEQ ID NO: 7] is > 10000 nM and ≤ 30000 nM; for Ac-MWFLIAFWG-OH [SEQ ID NO: 274] it is not above 400 nM; for KWFLICAWD (not fully specified; cyclo-H2N-K(GABA*)WFLICAWD*-COOH) [SEQ ID NO: 247] it is not above 400 nM. Regarding H-MWALISFWG-OH [SEQ ID NO: 13], in assay [2], the Kd was > 400 nM and ≤ 1000 nM.

In the case of H-MWFLASFWG-OH [SEQ ID NO: 11], in assay [2], the Kd was > 400 nM and ≤ 1000 nM. On the same count and under the same terms, the figure for KWFLICAWD (not fully specified; cyclo-H2N-K(Ahx*)WFLICAWD*-COOH) [SEQ ID NO: 249] is > 400 nM and ≤ 1000 nM. In the case of H-MSRMWFLISFWTG-OH [SEQ ID NO: 44], the “Wnt Reporter EC50” value in assay [1] was > 15000 nM and ≤ 22500 nM.

B4: SEQ ID NO: 466 (peptide)
peptide: Ac-W[NMeA]QSILDEH[Chg]QKVW-NH2
modifications: lactam 8-12; not fully specified; printed as Ac-NH-W-NMeA-QSILDE*H-Chg-QK*VW-NH2
Turning to B4, in assay [2], the Kd is not above 400 nM.

Regarding Ac-WILIAFWG-OH [SEQ ID NO: 263], the Kd in assay [2] was > 400 nM and ≤ 1000 nM. As to H-MSRMWFLICFWG-OH [SEQ ID NO: 46], the “Wnt Reporter EC50” value in assay [1] was not above 7500 nM.

B5: SEQ ID NO: 460 (peptide)
peptide: Ac-W[NMeA]QSILDKH[Chg]QDVW-NH2
modifications: lactam 8-12; not fully specified; printed as Ac-NH-W-NMeA-QSILDK*H-Chg-QD*VW-NH2
In assay [2], B5 displayed a Kd not above 400 nM. Still for that read-out and setting: next, WPQSILDKHGQDVW (not fully specified; Ac-NH-WPQSILDK*H-Chg-QD*VW-NH2) [SEQ ID NO: 462]: not above 400 nM.

B6: SEQ ID NO: 415 (peptide)
peptide: WAQKILDEHGSRVWG
HELM: PEPTIDE1{W.[meA].Q.K.I.L.D.E.H.[O=C([C@@H](N[*:1])C1CCCCC1)[*:2]].S.R.V.W.G.[am]}$PEPTIDE1,PEPTIDE1,4:R3-8:R3$$$V2.0
SMILES: CC[C@H](C)[C@@H]1NC(=O)[C@@H](NC(=O)[C@H](CCC(N)=O)NC(=O)[C@H](C)N(C)C(=O)[C@@H](N)Cc2c[nH]c3ccccc23)CCCCNC(=O)CC[C@@H](C(=O)N[C@@H](Cc2c[nH]cn2)C(=O)N[C@H](C(=O)N[C@@H](CO)C(=O)N[C@@H](CCCNC(=N)N)C(=O)N[C@H](C(=O)N[C@@H](Cc2c[nH]c3ccccc23)C(=O)NCC(N)=O)C(C)C)C2CCCCC2)NC(=O)[C@H](CC(=O)O)NC(=O)[C@H](CC(C)C)NC1=O
B6 displayed a Kd in assay [2] not above 400 nM.

B7: SEQ ID NO: 421 (peptide)
peptide: WAQKGLDEHVQRVWG
HELM: PEPTIDE1{[ac].W.[meA].Q.K.[O=C([C@@H](N[*:1])C1CCCCC1)[*:2]].L.D.E.H.V.Q.R.V.W.G.[am]}$PEPTIDE1,PEPTIDE1,5:R3-9:R3$$$V2.0
SMILES: CC(=O)N[C@@H](Cc1c[nH]c2ccccc12)C(=O)N(C)[C@@H](C)C(=O)N[C@@H](CCC(N)=O)C(=O)N[C@H]1CCCCNC(=O)CC[C@@H](C(=O)N[C@@H](Cc2c[nH]cn2)C(=O)N[C@H](C(=O)N[C@@H](CCC(N)=O)C(=O)N[C@@H](CCCNC(=N)N)C(=O)N[C@H](C(=O)N[C@@H](Cc2c[nH]c3ccccc23)C(=O)NCC(N)=O)C(C)C)C(C)C)NC(=O)[C@H](CC(=O)O)NC(=O)[C@H](CC(C)C)NC(=O)[C@H](C2CCCCC2)NC1=O
In assay [2], B7 displayed a Kd not above 400 nM.

B8: SEQ ID NO: 422 (peptide)
peptide: W[NMeA]QK[Chg]LDEHVQRVWG-NH2
modifications: lactam 4-8; not fully specified (N-terminus); printed as H17C8C(O)NH-W-NMeA-QK*-Chg-LDE*HVQRVWG-NH2
As for B8, the Kd in assay [2] is > 400 nM and ≤ 1000 nM.

B9: SEQ ID NO: 416 (peptide)
peptide: WAQKILDEHGSRVWG
HELM: PEPTIDE1{[ac].W.[meA].Q.K.I.L.D.E.H.[O=C([C@@H](N[*:1])C1CCCCC1)[*:2]].S.R.V.W.G.[am]}$PEPTIDE1,PEPTIDE1,5:R3-9:R3$$$V2.0
SMILES: CC[C@H](C)[C@@H]1NC(=O)[C@@H](NC(=O)[C@H](CCC(N)=O)NC(=O)[C@H](C)N(C)C(=O)[C@H](Cc2c[nH]c3ccccc23)NC(C)=O)CCCCNC(=O)CC[C@@H](C(=O)N[C@@H](Cc2c[nH]cn2)C(=O)N[C@H](C(=O)N[C@@H](CO)C(=O)N[C@@H](CCCNC(=N)N)C(=O)N[C@H](C(=O)N[C@@H](Cc2c[nH]c3ccccc23)C(=O)NCC(N)=O)C(C)C)C2CCCCC2)NC(=O)[C@H](CC(=O)O)NC(=O)[C@H](CC(C)C)NC1=O
B9: the Kd in assay [2] was not above 400 nM.

B10: SEQ ID NO: 420 (peptide)
peptide: WAQKGLDEHVQRVWG
HELM: PEPTIDE1{W.[meA].Q.K.[O=C([C@@H](N[*:1])C1CCCCC1)[*:2]].L.D.E.H.V.Q.R.V.W.G.[am]}$PEPTIDE1,PEPTIDE1,4:R3-8:R3$$$V2.0
SMILES: CC(C)C[C@@H]1NC(=O)[C@H](C2CCCCC2)NC(=O)[C@@H](NC(=O)[C@H](CCC(N)=O)NC(=O)[C@H](C)N(C)C(=O)[C@@H](N)Cc2c[nH]c3ccccc23)CCCCNC(=O)CC[C@@H](C(=O)N[C@@H](Cc2c[nH]cn2)C(=O)N[C@H](C(=O)N[C@@H](CCC(N)=O)C(=O)N[C@@H](CCCNC(=N)N)C(=O)N[C@H](C(=O)N[C@@H](Cc2c[nH]c3ccccc23)C(=O)NCC(N)=O)C(C)C)C(C)C)NC(=O)[C@H](CC(=O)O)NC1=O
Take B10: the equilibrium dissociation constant (Kd) in assay [2] is > 400 nM and ≤ 1000 nM. H-MWFLISFWRG-OH [SEQ ID NO: 49]: the “Wnt Reporter EC50” value in assay [1] was not above 7500 nM. For H-MSRMWILISFWG-OH [SEQ ID NO: 51], the “Wnt Reporter EC50” value in assay [1] was > 7500 nM and ≤ 15000 nM.

B11: SEQ ID NO: 243 (peptide)
peptide: KWFLIXAWD
HELM: PEPTIDE1{[ac].K.W.F.L.I.[Abu].A.W.D}$PEPTIDE1,PEPTIDE1,2:R3-10:R3$$$V2.0
SMILES: CC[C@@H]1NC(=O)[C@H]([C@@H](C)CC)NC(=O)[C@H](CC(C)C)NC(=O)[C@H](Cc2ccccc2)NC(=O)[C@H](Cc2c[nH]c3ccccc23)NC(=O)[C@@H](NC(C)=O)CCCCNC(=O)C[C@@H](C(=O)O)NC(=O)[C@H](Cc2c[nH]c3ccccc23)NC(=O)[C@H](C)NC1=O
Regarding B11, the equilibrium dissociation constant (Kd) in assay [2] was > 10000 nM and ≤ 30000 nM.

Source of the values: patent publication US20260098059A1 (ENDOMET BIOSCIENCES, published 2026).
